These results are taken from US20190077836A1 (PANASONIC INTELLECTUAL PROPERTY MANAGEMENT, published 2019).

Test [1] has as its target recombinant nucleoprotein (NP) protein derived from influenza virus H1N1 to which a Flag tag was fus (influenza virus H1N1).
In test [2] the target is T1, recombinant intranuclear protein (SEQ ID NO: 24) derived from a type-A influenza virus H1N1 (A/Puerto … (type-A influenza virus H1N1 (A/Puerto …, UniProt P03466 1-498))).
T1 construct: also called NP; NP antigen
T1 sequence (P03466 whole entry): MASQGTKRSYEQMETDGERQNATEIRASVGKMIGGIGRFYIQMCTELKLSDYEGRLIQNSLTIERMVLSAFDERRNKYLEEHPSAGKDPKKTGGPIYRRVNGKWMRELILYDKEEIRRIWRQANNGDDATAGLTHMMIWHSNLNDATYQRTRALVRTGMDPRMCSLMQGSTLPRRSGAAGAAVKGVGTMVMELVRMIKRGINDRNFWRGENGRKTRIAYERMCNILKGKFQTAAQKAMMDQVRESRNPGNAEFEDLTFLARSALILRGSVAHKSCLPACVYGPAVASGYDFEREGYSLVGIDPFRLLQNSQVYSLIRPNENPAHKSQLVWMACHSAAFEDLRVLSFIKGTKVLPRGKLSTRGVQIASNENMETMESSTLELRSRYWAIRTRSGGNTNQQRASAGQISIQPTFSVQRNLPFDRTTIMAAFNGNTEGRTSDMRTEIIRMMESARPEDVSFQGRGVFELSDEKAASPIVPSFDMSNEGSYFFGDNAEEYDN
Nature of the test: phage ELISA on immobilised NP, anti-M13 antibody detection, absorbance at 450 nm.

Sequence of recombinant nucleoprotein (NP) protein derived from influenza virus H1N1 to which a Flag tag was fus (influenza virus H1N1) (P03466 whole entry): as above

B1: VHH antibody including the amino acid sequence represented by SEQ ID NO: 8 (VHH)
VHH: QVQLVESGGGLVQTGGPLRLSCAVSDRTDSNYAMGWFRQAPGKEREFVAAISGTGYVTGYADSARNRFTLSRDNGKNAVYLQMNSLEPADTAVYYCAATSDQRYPGPRSSGYDYWGQGTQVTVSS
For the molecule B1, in test [1], the Kd (as a rule, the constant that tells how readily two partners part at equilibrium) worked out at 199 pM.

B2: monoclonal phage displaying the VHH antibody (DNA SEQ ID NO: 18, amino acid sequence SEQ ID NO: 8) (VHH)
VHH: B1 VHH
Take B2: the binding result in test [2] was “binds”.
